Changes are numbered by the printed parent chain.

The values below come from article PMC6555819, “Comprehensive study of nuclear receptor DNA binding provides a revised framework for understanding receptor specificity”.

To fix the notation:
B1: NRC3_wobSeed117_DR4_T11G_o1 (dsDNA)
DNA 1: GCCGTCAAAGGTCAACTAAGGTAACGTAAAGCACGCGCGATTGACAGCGTAGAATGAAGG
DNA 2: CCTTCATTCTACGCTGTCAATCGCGCGTGCTTTACGTTACCTTAGTTGACCTTTGACGGC
B2: NRC3_wobSeed1_DR0_T8A_o1 (dsDNA)
DNA 1: GCCAAACAAGGTCAAGGTCAAAGTCGGTTTGTGCCAGCGATTGACAGCGTAGAATGAAGG
DNA 2: CCTTCATTCTACGCTGTCAATCGCTGGCACAAACCGACTTTGACCTTGACCTTGTTTGGC
B3: NRC3_wobSeed113_DR4_G15T_o1 (dsDNA)
DNA 1: GCATATGTAGGTTATCTGGGGTCATTCAGACTAGGCGCGATTGACAGCGTAGAATGAAGG
DNA 2: CCTTCATTCTACGCTGTCAATCGCGCCTAGTCTGAATGACCCCAGATAACCTACATATGC
B4: NRC3_wobSeed90_DR3_G15T_o1 (dsDNA)
DNA 1: GCCATACAGGGTCATCTAGGCCAGAGTAGGGACGGCGCGATTGACAGCGTAGAATGAAGG
DNA 2: CCTTCATTCTACGCTGTCAATCGCGCCGTCCCTACTCTGGCCTAGATGACCCTGTATGGC
B5: NRC3_wobSeed5_DR0_A15C_o1 (dsDNA)
DNA 1: GCCCTTACGGGTCACGGTTATAGCACGGGTGGTACGGCGATTGACAGCGTAGAATGAAGG
DNA 2: CCTTCATTCTACGCTGTCAATCGCCGTACCACCCGTGCTATAACCGTGACCCGTAAGGGC
B6: NRC3_wobSeed46_DR1_G13A_o1 (dsDNA)
DNA 1: GCTTACCAAGGTAAAAGGTCGTTGATGCACGCCTTGGCGATTGACAGCGTAGAATGAAGG
DNA 2: CCTTCATTCTACGCTGTCAATCGCCAAGGCGTGCATCAACGACCTTTTACCTTGGTAAGC
B7: NRC3_wobSeed18_DR0_G23A_o1 (dsDNA)
DNA 1: GCGATACAGGGTCAAGGCCAGAATACGCGTATTGATGCGATTGACAGCGTAGAATGAAGG
DNA 2: CCTTCATTCTACGCTGTCAATCGCATCAATACGCGTATTCTGGCCTTGACCCTGTATCGC
B8: NRC3_wobSeed30_DR1_C8A_o1 (dsDNA)
DNA 1: GCACTAGAAGGCCAAGGGTCACTCAAGATTAGTCCGGCGATTGACAGCGTAGAATGAAGG
DNA 2: CCTTCATTCTACGCTGTCAATCGCCGGACTAATCTTGAGTGACCCTTGGCCTTCTAGTGC
B9: NRC3_wobSeed113_DR4_A28C_o1 (dsDNA)
DNA 1: B3 DNA 1 with T15G, A28C
DNA 2: B3 DNA 2 with T33G, A46C
B10: NRC3_wobSeed109_DR4_G4C_o1 (dsDNA)
DNA 1: GCCCTCCAAGGTCATAGGAGGTCAGTGAAGACAGATGCGATTGACAGCGTAGAATGAAGG
DNA 2: CCTTCATTCTACGCTGTCAATCGCATCTGTCTTCACTGACCTCCTATGACCTTGGAGGGC
B11: NRC3_wobSeed111_DR4_A17G_o1 (dsDNA)
DNA 1: GCCGAACTAGGTCAGAGCAGGACAGTGAAGGATGATGCGATTGACAGCGTAGAATGAAGG
DNA 2: CCTTCATTCTACGCTGTCAATCGCATCATCCTTCACTGTCCTGCTCTGACCTAGTTCGGC
B12: NRC3_wobSeed135_DR5_A5C_o1 (dsDNA)
DNA 1: GCCGCACTAGGTCATTGACAGGACAGTGAATAGTAAGCGATTGACAGCGTAGAATGAAGG
DNA 2: CCTTCATTCTACGCTGTCAATCGCTTACTATTCACTGTCCTGTCAATGACCTAGTGCGGC
B13: NRC3_wobSeed25_DR1_T25A_o1 (dsDNA)
DNA 1: GCCAAACTAGGTCAAAGGTCAAAGACGAGCCAACCAGCGATTGACAGCGTAGAATGAAGG
DNA 2: CCTTCATTCTACGCTGTCAATCGCTGGTTGGCTCGTCTTTGACCTTTGACCTAGTTTGGC
B14: NRC3_wobSeed77_DR3_C16G_o1 (dsDNA)
DNA 1: GCACTTACGGGTCAAGGAGGTTATAGCACGCGTATAGCGATTGACAGCGTAGAATGAAGG
DNA 2: CCTTCATTCTACGCTGTCAATCGCTATACGCGTGCTATAACCTCCTTGACCCGTAAGTGC
B15: NRC3_wobSeed44_DR1_T13G_o1 (dsDNA)
DNA 1: GCTGAATGAGGTGAAAGATCAGGGAACGTGGCGTCGGCGATTGACAGCGTAGAATGAAGG
DNA 2: CCTTCATTCTACGCTGTCAATCGCCGACGCCACGTTCCCTGATCTTTCACCTCATTCAGC
B16: NRC3_wobSeed69_DR2_T20C_o1 (dsDNA)
DNA 1: GCAGTCAAAGTTCACTAGGCAACGTAAGATTCAGCTGCGATTGACAGCGTAGAATGAAGG
DNA 2: CCTTCATTCTACGCTGTCAATCGCAGCTGAATCTTACGTTGCCTAGTGAACTTTGACTGC
B17: NRC3_wobSeed93_DR3_A18G_o1 (dsDNA)
DNA 1: GCAGTCAAAGTTCATCTGGGTAACGTAAGATATGCTGCGATTGACAGCGTAGAATGAAGG
DNA 2: CCTTCATTCTACGCTGTCAATCGCAGCATATCTTACGTTACCCAGATGAACTTTGACTGC
B18: NRC3_wobSeed93_DR3_C16T_o1 (dsDNA)
DNA 1: B17 DNA 1 with C16T, G18A
DNA 2: B17 DNA 2 with C43T, G45A
B19: NRC3_wobSeed138_DR5_G15T_o1 (dsDNA)
DNA 1: GCGATACAGGGTCATCTAGAGGCCAGAGTATGGAAAGCGATTGACAGCGTAGAATGAAGG
DNA 2: CCTTCATTCTACGCTGTCAATCGCTTTCCATACTCTGGCCTCTAGATGACCCTGTATCGC
B20: NRC3_wobSeed27_DR1_C13T_o1 (dsDNA)
DNA 1: GCACTCGGAGGATAAAGGTCAGAGCTACGCCAGTGAGCGATTGACAGCGTAGAATGAAGG
DNA 2: CCTTCATTCTACGCTGTCAATCGCTCACTGGCGTAGCTCTGACCTTTATCCTCCGAGTGC
B21: NRC3_wobSeed43_DR1_A25C_o1 (dsDNA)
DNA 1: GCCCAGACAGGTGAAAGGTAACTCCGTCTGGTACGCGCGATTGACAGCGTAGAATGAAGG
DNA 2: CCTTCATTCTACGCTGTCAATCGCGCGTACCAGACGGAGTTACCTTTCACCTGTCTGGGC

PXR:RXRa, sequence (O75469 whole entry, chain 1 of 2): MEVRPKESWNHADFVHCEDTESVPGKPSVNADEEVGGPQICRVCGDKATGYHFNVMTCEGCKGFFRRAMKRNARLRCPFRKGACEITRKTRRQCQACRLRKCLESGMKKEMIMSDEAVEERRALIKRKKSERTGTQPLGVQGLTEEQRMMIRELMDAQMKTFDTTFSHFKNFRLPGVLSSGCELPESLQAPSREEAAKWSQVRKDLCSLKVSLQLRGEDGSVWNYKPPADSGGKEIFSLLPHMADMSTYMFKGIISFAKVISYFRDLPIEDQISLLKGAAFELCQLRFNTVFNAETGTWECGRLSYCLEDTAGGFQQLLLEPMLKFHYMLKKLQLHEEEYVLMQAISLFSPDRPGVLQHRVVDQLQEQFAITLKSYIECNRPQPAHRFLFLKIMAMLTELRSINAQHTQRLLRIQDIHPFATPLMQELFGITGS
PXR:RXRa, sequence (P19793 whole entry, chain 2 of 2): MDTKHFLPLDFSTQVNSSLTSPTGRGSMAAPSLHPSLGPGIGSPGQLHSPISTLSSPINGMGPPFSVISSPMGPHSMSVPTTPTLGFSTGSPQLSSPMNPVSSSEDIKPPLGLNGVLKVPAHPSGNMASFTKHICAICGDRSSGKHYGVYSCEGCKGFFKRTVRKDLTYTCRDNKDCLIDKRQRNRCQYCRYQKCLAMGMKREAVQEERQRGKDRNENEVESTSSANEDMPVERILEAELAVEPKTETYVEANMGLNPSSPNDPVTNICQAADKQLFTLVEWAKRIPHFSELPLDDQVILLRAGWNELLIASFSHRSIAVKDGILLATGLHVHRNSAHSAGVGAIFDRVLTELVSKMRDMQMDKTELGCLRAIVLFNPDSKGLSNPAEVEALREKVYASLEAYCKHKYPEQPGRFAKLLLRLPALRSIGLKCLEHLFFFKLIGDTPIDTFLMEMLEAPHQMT
LXRa:RXRa, sequence (Q13133 whole entry, chain 1 of 2): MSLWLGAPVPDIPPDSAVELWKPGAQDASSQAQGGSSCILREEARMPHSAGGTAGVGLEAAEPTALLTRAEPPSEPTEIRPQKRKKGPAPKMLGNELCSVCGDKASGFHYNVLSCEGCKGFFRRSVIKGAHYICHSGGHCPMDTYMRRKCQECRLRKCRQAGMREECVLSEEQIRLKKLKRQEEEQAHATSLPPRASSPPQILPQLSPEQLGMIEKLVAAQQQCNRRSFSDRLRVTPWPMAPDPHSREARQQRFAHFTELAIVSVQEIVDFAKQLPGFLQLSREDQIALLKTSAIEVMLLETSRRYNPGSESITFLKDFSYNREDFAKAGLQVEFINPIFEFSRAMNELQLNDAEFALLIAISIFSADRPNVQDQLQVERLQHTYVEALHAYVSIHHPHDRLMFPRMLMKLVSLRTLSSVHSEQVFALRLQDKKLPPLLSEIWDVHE
LXRa:RXRa, sequence (P19793 whole entry, chain 2 of 2): as the sequence (P19793 whole entry, chain 2 of 2) above
LXRb:RXRa, sequence (P55055 whole entry, chain 1 of 2): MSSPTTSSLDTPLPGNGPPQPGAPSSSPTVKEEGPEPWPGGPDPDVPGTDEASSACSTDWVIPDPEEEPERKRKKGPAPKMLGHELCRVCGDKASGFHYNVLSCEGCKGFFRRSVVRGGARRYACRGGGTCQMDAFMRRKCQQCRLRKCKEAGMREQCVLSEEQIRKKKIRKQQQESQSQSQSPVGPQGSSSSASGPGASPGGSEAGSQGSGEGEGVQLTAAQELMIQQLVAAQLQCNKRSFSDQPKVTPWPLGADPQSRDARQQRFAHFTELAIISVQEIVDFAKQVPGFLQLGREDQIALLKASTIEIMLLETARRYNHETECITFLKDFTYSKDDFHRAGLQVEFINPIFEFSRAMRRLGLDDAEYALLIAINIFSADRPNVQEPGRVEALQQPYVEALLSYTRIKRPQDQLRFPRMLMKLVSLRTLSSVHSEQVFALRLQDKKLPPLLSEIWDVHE
LXRb:RXRa, sequence (P19793 whole entry, chain 2 of 2): as the sequence (P19793 whole entry, chain 2 of 2) above
RARb:RXRa, sequence (P10826 whole entry, chain 1 of 2): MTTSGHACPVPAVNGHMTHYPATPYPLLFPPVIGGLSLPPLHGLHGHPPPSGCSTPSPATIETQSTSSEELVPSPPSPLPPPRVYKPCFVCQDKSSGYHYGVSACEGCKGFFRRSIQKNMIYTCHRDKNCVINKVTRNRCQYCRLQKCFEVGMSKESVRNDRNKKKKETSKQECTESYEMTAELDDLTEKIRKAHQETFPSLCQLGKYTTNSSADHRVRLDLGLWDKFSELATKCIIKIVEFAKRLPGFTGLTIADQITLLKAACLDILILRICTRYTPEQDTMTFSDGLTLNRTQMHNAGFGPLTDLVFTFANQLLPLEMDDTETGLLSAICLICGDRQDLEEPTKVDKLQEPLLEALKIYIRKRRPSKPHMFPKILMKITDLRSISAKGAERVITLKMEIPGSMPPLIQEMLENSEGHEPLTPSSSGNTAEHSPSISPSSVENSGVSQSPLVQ
RARb:RXRa, sequence (P19793 whole entry, chain 2 of 2): as the sequence (P19793 whole entry, chain 2 of 2) above

One data set has as its target RARg:RXRa (Homo sapiens, UniProt P13631;P19793 full;full). The data set is described as follows: no ligand; PBM; 270 nM : 90 nM RXRa; PBS pH 7.4, 2% milk, 0.02% Triton X-100, 1 mM DTT, BSA, 0.4 mg/ml salmon testes DNA. The following applies: tags: His kept;His cleaved; copies: 1;1; label: surface-attached array probe. In outline: (§1)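 Binding buffer was PBS pH 7.4 with 2% milk, 0.02% Triton X-100, 1 mM DTT, 0.2 mg/mL BSA and 0.4 mg/ml salmon testes DNA. In it, ligand-free nuclear receptor dimers were incubated 1 h on custom Agilent 4×180K protein-binding microarrays carrying double-stranded probes. Antibodies against each partner (one per run) detected binding, and z-scores were calculated against random background probes after regression normalization of scanned fluorescence.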
Regarding B1, the binding signal was 8.38 PBM z-score against 500 random probes.
For the molecule B2, the binding signal was 7.39 PBM z-score against 500 random probes.

Another data set has as its target PXR:RXRa (Homo sapiens, UniProt O75469;P19793 full;full). The description is as above. The following applies: tags: His kept;His cleaved; copies: 1;1; label: surface-attached array probe. The gist of the method: as §1
For the molecule B3, the binding signal was 6.87 PBM z-score against 500 random probes.
Turning to B1, the binding signal is 6.64 PBM z-score against 500 random probes.
On to B2, for which the binding signal was 6.47 PBM z-score against 500 random probes.

Another data set addresses VDR:RXRa (Homo sapiens, UniProt P11473;P19793 full;full). The data set is described as above. The following applies: tags: His kept;His cleaved; copies: 1;1; label: surface-attached array probe. In outline: as §1
As for B3, the binding signal is 6.99 PBM z-score against 500 random probes.

The target in a further data set is RARb:RXRa (Homo sapiens, UniProt P10826;P19793 full;full). The data set is described as above. To be noted: tags: His kept;His cleaved; copies: 1;1; label: surface-attached array probe. In outline:
as §1
For the molecule B1, the binding signal is 6.27 PBM z-score against 500 random probes.
For B2, the binding signal was 6.01 PBM z-score against 500 random probes.

Another data set has as its target FXR:RXRa (Homo sapiens, UniProt Q96RI1;P19793 full;full). The data set is described as above. The following applies: tags: His kept;His cleaved; copies: 1;1; label: surface-attached array probe. In outline:
as §1
Consider B1, for which the binding signal was 8.82 PBM z-score against 500 random probes.
On the same count and under the same terms, the value for B2 was 8.19 PBM z-score against 500 random probes.

The next data set addresses LXRb:RXRa (Homo sapiens, UniProt P55055;P19793 full;full). The data set is described as above. The following applies: tags: His kept;His cleaved; copies: 1;1; label: surface-attached array probe. The gist of the method:
as §1
For the molecule B3, the binding signal is 7.25 PBM z-score against 500 random probes.
Still for that read-out and setting: the value for B1 was 6.25 PBM z-score against 500 random probes; that for B2 was 5.84 PBM z-score against 500 random probes.

Another data set addresses LXRa:RXRa (Homo sapiens, UniProt Q13133;P19793 full;full). The data set is described as above. The following applies: tags: His kept;His cleaved; copies: 1;1; label: surface-attached array probe. In outline: as §1
Turning to B3, the binding signal was 8.36 PBM z-score against 500 random probes.
Still for that read-out and setting: the value for B1 was 7.32 PBM z-score against 500 random probes; that for B2 was 6.69 PBM z-score against 500 random probes.

The target in another data set is PPARa:RXRa (Homo sapiens, UniProt Q07869;P19793 full;full). Described as above. The following applies: tags: GST kept;His cleaved; copies: 1;1; label: surface-attached array probe. The gist of the method: as §1
In the case of B1, the binding signal was 6.96 PBM z-score against 500 random probes.

The target of another data set is PPARg:RXRa (Homo sapiens, UniProt P37231;P19793 full;full). Put plainly: no ligand; PBM; 180 nM : 90 nM RXRa; PBS pH 7.4, 2% milk, 0.02% Triton X-100, 1 mM DTT, BSA, 0.4 mg/ml salmon testes DNA. The following applies: tags: His kept;His cleaved; copies: 1;1; label: surface-attached array probe.
PPARg:RXRa, sequence (P37231 29-505, chain 1 of 2): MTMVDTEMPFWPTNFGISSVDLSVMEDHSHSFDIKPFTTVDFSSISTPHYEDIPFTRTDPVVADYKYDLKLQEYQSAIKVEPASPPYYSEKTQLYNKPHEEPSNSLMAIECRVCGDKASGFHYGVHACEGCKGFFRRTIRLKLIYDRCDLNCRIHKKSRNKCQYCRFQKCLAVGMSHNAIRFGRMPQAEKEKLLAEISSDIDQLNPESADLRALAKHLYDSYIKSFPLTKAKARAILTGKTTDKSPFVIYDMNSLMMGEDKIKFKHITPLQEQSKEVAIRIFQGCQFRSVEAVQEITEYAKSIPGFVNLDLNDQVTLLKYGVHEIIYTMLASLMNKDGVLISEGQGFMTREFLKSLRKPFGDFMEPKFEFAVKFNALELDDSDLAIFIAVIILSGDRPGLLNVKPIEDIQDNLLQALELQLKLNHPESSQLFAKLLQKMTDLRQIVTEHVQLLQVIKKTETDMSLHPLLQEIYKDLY
PPARg:RXRa, sequence (P19793 whole entry, chain 2 of 2): as the sequence (P19793 whole entry, chain 2 of 2) above
In the case of B4, the binding signal is 5.29 PBM z-score against 500 random probes.
Same read-out and setting: the value for B5 was 6.21 PBM z-score against 500 random probes; that for B6 was 6.58 PBM z-score against 500 random probes.
As to B7, the binding signal is 6.34 PBM z-score against 500 random probes.
As for B8, the binding signal is 6.78 PBM z-score against 500 random probes.
On the same count and under the same terms, the value for B9 was 5.53 PBM z-score against 500 random probes; that for B10 was 5.72 PBM z-score against 500 random probes; that for B11 was 5.81 PBM z-score against 500 random probes.
As for B12, the binding signal is 7.03 PBM z-score against 500 random probes.
For B13, the binding signal is 14.6 PBM z-score against 500 random probes.
On to B14, for which the binding signal was 5.22 PBM z-score against 500 random probes.
In the case of B15, the binding signal is 6.9 PBM z-score against 500 random probes.
On the same count and under the same terms, the value for B16 was 6.68 PBM z-score against 500 random probes.
For the molecule B17, the binding signal was 6.45 PBM z-score against 500 random probes.
Regarding B18, the binding signal is 5.92 PBM z-score against 500 random probes.
Turning to B19, the binding signal was 6.11 PBM z-score against 500 random probes.
The same measure, in the same setting: the value for B20 was 6.02 PBM z-score against 500 random probes; that for B21 was 5.61 PBM z-score against 500 random probes.

The target of the next data set is RXRa (Homo sapiens, UniProt P19793). The data set is described as follows: no ligand; PBM; 180 nM; PBS pH 7.4, 2% milk, 0.02% Triton X-100, 1 mM DTT, BSA, 0.4 mg/ml salmon testes DNA. To be noted: tags: His cleaved; chain copies: 2; label: surface-attached array probe.
Consider B1, for which the binding signal was 9.06 PBM z-score against 500 random probes.
Same read-out and setting: the value for B2 was 7.79 PBM z-score against 500 random probes.
